The text below walks through data of PMC12784961, “Structure of Bacillus subtilis Ku-mediated DNA synaptic complex”.

For one data set, the target named is T1, bsKu core N32E (Bacillus subtilis, UniProt O34859 18-244, N32E).
T1 sequence: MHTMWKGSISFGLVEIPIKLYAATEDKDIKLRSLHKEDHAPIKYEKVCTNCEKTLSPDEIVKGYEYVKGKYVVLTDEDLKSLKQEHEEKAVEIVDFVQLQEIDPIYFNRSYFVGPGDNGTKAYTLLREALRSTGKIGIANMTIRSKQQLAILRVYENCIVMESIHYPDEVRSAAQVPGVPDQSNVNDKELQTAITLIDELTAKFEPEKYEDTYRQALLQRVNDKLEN
The data set can be described thus: EMSA; no significant loss of binding; EMSA: 20 mM HEPES pH 7.5, 150 mM KCl, 1 mM DTT, 50 nM DNA, 30 min at 4°C, 15% native PAGE in 0.5x TBE, SYBR Gold; SEC: same buffer, protein:DNA 1:2, 1 h at 4°C, Superdex 75. As to conditions: protein: recombinant; tags: N-terminal 8xHis-MBP, cleaved; chain copies: 2; blunt.

For another data set, the target named is T2, bsKu core L30G (Bacillus subtilis, UniProt O34859 18-244, L30G).
T2 sequence: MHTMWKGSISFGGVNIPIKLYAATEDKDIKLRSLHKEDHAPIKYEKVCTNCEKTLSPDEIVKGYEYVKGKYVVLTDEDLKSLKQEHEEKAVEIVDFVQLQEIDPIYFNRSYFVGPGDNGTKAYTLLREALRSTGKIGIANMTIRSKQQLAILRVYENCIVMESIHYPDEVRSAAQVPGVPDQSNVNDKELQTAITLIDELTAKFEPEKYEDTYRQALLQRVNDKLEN
Described as above. The settings on record: protein: recombinant; tags: N-terminal 8xHis-MBP, cleaved; chain copies: 2; blunt.

B1: 13-bp DNA (dsDNA)
DNA 1: GTACCTGTAGAAG
DNA 2: CTTCTACAGGTAC
For B1, the binding result with bsKu core N32E and with bsKu core L30G was “binds” in each case.
